Test results published in the supplement of paper PMC7125110.
± gives the standard error. For part of these data: Fewer inactive variants are shown than the library holds.

B1: glmS ribozyme (parent)
chain: AUAAAAGCGCCAGAACUACAGAAAUGUAGUUGACGAGGAGGAGGUUUAUCGAAUUUUCGGCGGAUGCCUCCAAA

Tests used:
Conditions in all cases: with glucosamine-6-phosphate
glucosamine-6-phosphate [1] = variants of: B1; assay: kcat; higher = faster cleavage; RNA array
In short: (§1)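 On sequenced MiSeq chips, barcoded ribozyme variants were made in situ by E. coli RNA polymerase and followed at 37 °C through a hybridised Cy3 probe. Glucosamine-6-phosphate was flowed in at 40 μM to 10 mM in HEPES/KCl/Mg(OAc)2 buffer. Exponential fits to normalised per-tile medians gave kobs, and weighted Michaelis–Menten fits gave kcat and KM.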

glucosamine-6-phosphate [2] = variants of: B1; assay: self-cleavage kobs at 40 uM GlcN6P; higher = faster cleavage; RNA array
In short: as §1

glucosamine-6-phosphate [3] = variants of: B1; assay: self-cleavage kobs at 10000 uM GlcN6P; higher = faster cleavage; RNA array
In short: as §1

glucosamine-6-phosphate [4] = variants of: B1; assay: self-cleavage kobs at 160 uM GlcN6P; higher = faster cleavage; RNA array
In short: as §1

glucosamine-6-phosphate [5] = variants of: B1; assay: self-cleavage kobs at 640 uM GlcN6P; higher = faster cleavage; RNA array
In short: as §1

glucosamine-6-phosphate [6] = variants of: B1; assay: self-cleavage kobs at 2500 uM GlcN6P; higher = faster cleavage; RNA array
In short: as §1

glucosamine-6-phosphate [7] = variants of: B1; assay: KM; higher = weaker cofactor use; RNA array
In short: as §1

Variant | kcat (glucosamine-6-phosphate [1]) [s⁻¹] | self-cleavage kobs at 40 uM GlcN6P (glucosamine-6-phosphate [2]) [s⁻¹] | self-cleavage kobs at 10000 uM GlcN6P (glucosamine-6-phosphate [3]) [s⁻¹] | self-cleavage kobs at 160 uM GlcN6P (glucosamine-6-phosphate [4]) [s⁻¹] | self-cleavage kobs at 640 uM GlcN6P (glucosamine-6-phosphate [5]) [s⁻¹] | self-cleavage kobs at 2500 uM GlcN6P (glucosamine-6-phosphate [6]) [s⁻¹] | KM (glucosamine-6-phosphate [7]) [µM]
G41U U49G | 3.94e-05 ± 6e-06 | < 1e-05 | 3.38e-05 ± 1e-05 |  |  |  | 
G41A U55A | 6.65e-05 ± 1.1e-05 |  |  | 4.67e-05 ± 1.4e-05 | 6.66e-05 ± 1.1e-05 | 5.75e-05 ± 1.2e-05 | 
G44A U47A | 0.000358 ± 9.3e-05 | < 1e-05 | 0.00028 ± 4.7e-05 |  | 7.28e-05 ± 1.8e-05 | 0.000137 ± 2.1e-05 | 3500 ± 1700
A42C U57G | < 1e-05 | < 1e-05 |  | < 1e-05 |  |  | 
G41C C71A | 0.000115 ± 2e-05 |  | 0.000103 ± 8.1e-06 |  | 5.78e-05 ± 1.1e-05 | 0.000181 ± 2.7e-05 | 
G44C U47G G66U C67G | 0.000596 ± 0.00019 |  | 0.000455 ± 0.00013 |  | 0.000152 ± 5e-05 | 0.000668 ± 0.00032 | 
A42U U47G | 3.95e-05 ± 1.3e-06 | < 1e-05 | 2.38e-05 ± 9e-06 |  |  |  | 6570 ± 510
G43C C67A | 0.000634 ± 8.3e-05 |  | 0.00052 ± 4.3e-05 | 4.22e-05 ± 1.1e-05 | 0.000205 ± 2e-05 | 0.000479 ± 5.7e-05 | 1520 ± 410
G41A A42U | 0.000123 ± 4e-06 |  | 0.000108 ± 1.2e-05 |  | 3.91e-05 ± 1.2e-05 | 7.77e-05 ± 1.3e-05 | 1440 ± 160
A42U C70U | 0.000154 ± 2e-05 |  | 0.000126 ± 1.2e-05 |  | 3.64e-05 ± 7.2e-06 | 0.000112 ± 1.2e-05 | 1640 ± 560
A42U C70G | 2.5e-05 ± 2e-06 |  | 2.35e-05 ± 9.3e-06 |  |  |  | 979 ± 380
A42C U56C | < 1e-05 | < 1e-05 |  |  |  |  | 
G41U A53U | 0.00104 ± 0.00026 | 9.28e-05 ± 2e-05 | 0.00119 ± 0.00021 | 0.000145 ± 2.2e-05 | 0.000413 ± 8.1e-05 | 0.000697 ± 0.0001 | 889 ± 390
G44U G66A | 0.000401 ± 9.1e-05 |  | 0.000438 ± 0.0001 |  | 0.000153 ± 3.3e-05 | 0.000236 ± 4.4e-05 | 
G41C U54A | 8.93e-05 ± 2e-05 |  | 8.37e-05 ± 2.2e-05 |  | 7.27e-05 ± 1.6e-05 | 7.27e-05 ± 1.5e-05 | 
A42C C50A | < 1e-05 | < 1e-05 | < 1e-05 |  |  | < 1e-05 | 
A42G U65G | 0.00591 ± 0.00097 | 5.66e-05 ± 1.2e-05 | 0.00436 ± 0.00084 | 0.000279 ± 7.4e-05 | 0.000708 ± 0.00015 | 0.00211 ± 0.00033 | 4220 ± 930

Variant | kcat (glucosamine-6-phosphate [1]) [s⁻¹] | self-cleavage kobs at 40 uM GlcN6P (glucosamine-6-phosphate [2]) [s⁻¹] | self-cleavage kobs at 10000 uM GlcN6P (glucosamine-6-phosphate [3]) [s⁻¹] | self-cleavage kobs at 160 uM GlcN6P (glucosamine-6-phosphate [4]) [s⁻¹] | self-cleavage kobs at 640 uM GlcN6P (glucosamine-6-phosphate [5]) [s⁻¹] | self-cleavage kobs at 2500 uM GlcN6P (glucosamine-6-phosphate [6]) [s⁻¹] | KM (glucosamine-6-phosphate [7]) [µM]
G41A A48C | 1.6e-05 ± 1.9e-06 | < 1e-05 |  |  | < 1e-05 |  | 2350 ± 1000
G40C U49G | 6.75e-05 ± 1.8e-05 | < 1e-05 | 5.5e-05 ± 1.3e-05 |  |  | 5.43e-05 ± 1.5e-05 | 
G41U U46G | 0.00077 ± 0.00021 |  | 0.000804 ± 0.00021 | 8.6e-05 ± 2.2e-05 | 0.000197 ± 4.2e-05 | 0.000433 ± 0.00011 | 1560 ± 690
G40U C70A | 0.000457 ± 7.9e-05 |  | 0.000372 ± 4.6e-05 | 3.45e-05 ± 1.4e-05 | 0.000149 ± 1.8e-05 | 0.000434 ± 7.3e-05 | 1360 ± 460
G40U U69G | < 1e-05 | < 1e-05 |  | < 1e-05 | < 1e-05 |  | 1720 ± 260
G40C U45C | 0.000403 ± 4.9e-05 |  | 0.000344 ± 6.4e-05 |  | 0.0001 ± 2.5e-05 | 0.000195 ± 3.4e-05 | 2310 ± 570
G41U A52U | 0.000103 ± 1e-05 |  | 8.78e-05 ± 1.2e-05 |  |  | 7.47e-05 ± 1.3e-05 | 1340 ± 510
G41A G66A | 0.0028 ± 0.0014 | 6.67e-05 ± 1.2e-05 | 0.0028 ± 0.00037 | 0.000116 ± 3.7e-05 | 0.000562 ± 8.6e-05 | 0.000832 ± 0.00018 | 
G40C U55G | 0.000581 ± 0.00017 |  | 0.00045 ± 8.6e-05 | 0.000102 ± 2.2e-05 | 0.000531 ± 0.0001 | 0.000712 ± 0.00015 | 
G40U U57C | 2.46e-05 ± 1.1e-05 | < 1e-05 |  |  |  | 3.3e-05 ± 1.4e-05 | 
A42U U54G | 0.000246 ± 1e-05 |  | 0.000226 ± 2.1e-05 |  | 0.000117 ± 2e-05 | 0.000201 ± 3.1e-05 | 736 ± 110
A42U U54C | 0.00019 ± 4.1e-05 |  | 0.000159 ± 1.7e-05 |  | 6.5e-05 ± 1.1e-05 | 0.00024 ± 3.8e-05 | 
A42U U54A | 0.000282 ± 2.2e-05 |  | 0.000231 ± 2e-05 |  | 6.94e-05 ± 9.8e-06 | 0.000177 ± 2e-05 | 1890 ± 340
A42U C71A | 0.000146 ± 7.1e-05 |  | 8.25e-05 ± 2.2e-05 |  |  | 3.16e-05 ± 8.6e-06 | 
A42U G43U A52G | < 1e-05 |  |  |  |  | < 1e-05 | 
G43U U46G | 2.88e-05 ± 5.1e-06 |  |  |  | < 1e-05 |  | 
G43U A73U | 4.34e-05 ± 8.8e-06 |  | 3.88e-05 ± 1e-05 |  |  | 4.73e-05 ± 2.1e-05 | 
